Assay in all cases: purified protein
Format in all cases: biochemical, Trichomonas vaginalis
What all share (details): NADPH co-substrate, 100 mM potassium phosphate pH 5.5, 37 °C

The test system of data set [1] is Cc1cc2nc3c(=O)[nH]c(=O)nc-3n(C[C@H](O)[C@H](O)[C@H](O)COP(=O)(O)OP(=O)(O)OC[C@H]3O[C@@H](n4cnc5c(N)ncnc54)[C@H](O)[C@@H]3O)c2cc1C.
Data set [2] deals with Cc1cc2nc3c(=O)[nH]c(=O)nc-3n(C[C@H](O)[C@H](O)[C@H](O)COP(=O)(O)O)c2cc1C.
The test system of data set [3] is Cc1cc2nc3c(=O)[nH]c(=O)nc-3n(C[C@H](O)[C@H](O)[C@H](O)CO)c2cc1C.

For 3 substances, Km results are on record in publication PMC4437529.

The term Km denotes the substrate concentration at which the rate is half of its maximum. As to “Flavin reductase 1 (FR1) (Trichomonas vaginalis G3)”, the Km in data set [1] was 16.5 ± 2.5 µM; in data set [2] it was 10 ± 1.4 µM.

Turning to “Flavin reductase 5 (FR5) (Trichomonas vaginalis G3)”, the Km in data set [1] is 267.4 ± 21.6 µM; in data set [3] it was 94.4 ± 11.5 µM; in data set [2], 186.9 ± 30.3 µM.

As to “Flavin reductase 6 (FR6) (Trichomonas vaginalis G3)”, the Km came to 192.1 ± 12.2 µM in data set [1], 97.5 ± 28.8 µM in data set [3] and 160 ± 23.9 µM in data set [2].
